Target: Deinococcus radiodurans RNase J, wild type, full-length (residues 1-559) (Deinococcus radiodurans)
Assay: SEC

stoichiometry N: 2
Substance: Deinococcus radiodurans RNase J, wild type, full-length (residues 1-559) (enzyme)

Source: PMC4477667
